One molecule from publication doi:10.1101/685867 (bioRxiv, 2020) can be followed below.

In the assay the target is T1, S0_2.126 (synthetic construct (de novo design)).
T1 chain: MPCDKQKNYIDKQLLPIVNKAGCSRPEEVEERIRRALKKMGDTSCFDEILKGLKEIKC
In words: SPR.

What is called Kd is the constant that tells how readily two partners part at equilibrium. A lower Kd goes with tighter binding.

B1: D25 IgG (antibody, V domains shown)
VH: QVQLVQSGAEVKKPGSSVMVSCQASGGPLRNYIINWLRQAPGQGPEWMGGIIPVLGTVHYAPKFQGRVTITADESTDTAYIHLISLRSEDTAMYYCATETALVVSTTYLPHYFDNWGQGTLVTVSS
VL: DIQMTQSPSSLSAAVGDRVTITCQASQDIVNYLNWYQQKPGKAPKLLIYVASNLETGVPSRFSGSGSGTDFSLTISSLQPEDVATYYCQQYDNLPLTFGGGTKVEIK
For B1, the Kd is approximately 0.05 nM.
